Measurements taken from US11920136B2, “Transglutaminase-mediated conjugation” (Tallac Therapeutics, Inc., priority 2020, dated 2024).

B1: TNT50a: "an anti-mouse CD22 antibody (SEQ ID NO: 124 and SEQ ID NO: 125) conjugated to mouse CpG 4523 (SEQ ID NO: 121) of DAR1 configuration" (conjugate, listed as Mus musculus)
chain 1: QVQLQQPGAEIVRPGTSVKLSCKASGYTFTDYWMNWVKQRPGQGLEWFGAIDPSDSYTRYNQEFKGKATLTVDTSSTTAYMQLSSLTSEDSAVYFCARSDYTYSFYFDYWGLGTTLTVSS
chain 2: DIVMTQAAFSNPVTLGTSASISCRSSKSLLHSNGITYLYWYLQKPGQSPQLLIYQMSNLASGVPDRFSSSGSGTDFTLRISRVEAEDVGVYYCAQNLELPWTFGGGTKLEIK
DNA: tucgtcgtgacgtt
modifications: antibody-CpG conjugate, DAR1
B2: CD22 Ab-CpG conjugate: "anti-mouse CD22 antibody (SEQ ID NO: 124 and SEQ ID NO: 125) conjugated to mouse CpG 4523 (SEQ ID NO: 121) with a DAR1 configuration" (conjugate, listed as Mus musculus)
chain 1: B1 chain 1
chain 2: B1 chain 2
DNA: tucgtcgtgacgtt
modifications: antibody-CpG conjugate, DAR1

Key:
[1] = system: EMT6 mouse mammary carcinoma cells; assay: EMT6 breast cancer model (checkpoint inhibitor refractory), intraperitoneal dosing; assay type: in vivo, BALB/c mice; conditions: intraperitoneally 2 doses every 3, 5 or 7 days at 10 mg/kg
Description: EMT6 mouse mammary carcinoma cells (ATCC) were cultured in Complete RPMI 1640 (RPMI1640+10% FBS (Gibco)) at 37° C. and 5% CO2. Cells were detached with Trypsin 0.25% (Gibco) and washed twice with RPMI 1640 (Gibco). Cells were resuspended at 20E6/mL in RPMI 1640 and kept on ice until use. 100 uL of suspended cells were subcutaneously implanted into the right flank of 6 week old female BALB/c mice (Charles River). Tumor size was measured and recorded twice a week with calipers starting 3 days post implantation until duration of the study, approximately 35 days later. Tumor volume was calculated using the following formula: (length×width×width)/2. Once tumors reached on average 75 mm^3, approximately 3 days post implantation, mice were randomized by tumor size and treatments were initiated. […] TNT50a conjugates were administered intraperitoneally 2 doses every 3, 5 or 7 days at 10 mg/kg.

[2] = system: CT26 mouse colon carcinoma cells; assay: CT26 model, anti-PD1 non-responders; assay type: in vivo, BALB/c mice; conditions: conjugate intravenously 2 doses every 3 days at 10 mg/kg; anti-PD1 intraperitoneal 10 mg/kg
Description: 100 uL of suspended cells were subcutaneously implanted into the right flank of 6 week old female BALB/c mice (Charles River).

spleens and tumors = assay: Immunophenotyping of spleen and tumor in syngeneic models (A20, CT26, EMT6); assay type: in vivo, BALB/c mice; conditions: 1 or 2 doses intraperitoneally every 3 days at 10 mg/kg
Description: Immunophenotyping of multiple syngeneic models administered with TNT50a were conducted. […] A20 B cell lymphoma, CT26 colon carcinoma, EMT6 mouse mammary carcinoma cells (ATCC) were cultured in Complete RPMI 1640 (RPMI1640+10% FBS (Gibco)) at 37° C. and 5% CO2. Cells were detached with Trypsin 0.25% (Gibco) and washed twice with RPMI 1640 (Gibco). Cells were resuspended at 20E6/mL in RPMI 1640 and kept on ice until use. 100 uL of suspended cells were subcutaneously implanted into the right flank of 6 week old female BALB/c mice (Charles River). Tumor size was measured with calipers. Tumor volume was calculated using the following formula: (length×width×width)/2. Once tumors reached on average 200-300 mm^3, mice were randomized by tumor size and treatments were initiated. The conjugates were administered 1 or 2 doses intraperitoneally every 3 days at 10 mg/kg.
Spleens and tumors were harvested either two or three days post-last injection for immunophenotyping. Spleens were processed into single-cell suspension in ice-cold PBS, lysed with ACK lysis buffer (Gibco), washed twice and re-suspended in PBS supplemented with 2% FBS. Tumor-derived single-cell suspensions were prepared using a cocktail of Collagenase A (Roche), Collagenase D (Roche) and DNAse (Roche) for 45 min at 37° C. […]

[3] = system: EMT6 mouse mammary carcinoma cells; assay: EMT6 breast cancer model, intratumoral administration; assay type: in vivo, BALB/c mice; conditions: intratumorally 2 doses every 3 days at 24 uM
Description: 100 uL of suspended cells were subcutaneously implanted into the right flank of 6 week old female BALB/c mice (Charles River). Tumor size was measured and recorded twice a week with calipers starting 7 days post implantation until duration of the study, approximately 25 days later. Tumor volume was calculated using the following formula: (length×width×width)/2. Once tumors reached on average 180 mm^3, approximately 7 days post implantation, mice were randomized by tumor size and treatments were initiated.

4T1 cells = assay: 4T1 lung metastatic burden; assay type: in vivo, BALB/C mice; conditions: 10 mg/kg, 3 doses every 3 days; compared to the control

Molecule	anti-tumor efficacy [1]	tumor volume in anti-PD1 non responders [2]	immune cell changes in spleen and tumor (spleens and tumors)	anti-tumor potency [3]	number of metastatic plaques (4T1 cells)
B1	showed anti-tumor efficacy in all three dosing regimens	tumor volume was reduced			
B2			promotes B cell differentiation, decrease in Bregs, increase in T cell effector function and modulation of suppressive myeloid cells	showed anti-tumor potency	significantly reduced
